Measurements taken from article PMC7076015.

Key:
MBP-KPNA7(E344Q) (human) [1] = target: MBP-KPNA7(E344Q) (human) (UniProt A9QM74)
MBP-KPNA7(E344Q) (human) [2] = target: MBP-KPNA7(E344Q) (human) (UniProt A9QM74); remark: listed apart in the source
MBP-KPNA7(E344Q) (human) [3] = target: MBP-KPNA7(E344Q) (human) (UniProt A9QM74); experiment: pull-down; MBP fusion proteins on amylose resin (1 μg/μl), GST-GFP-NLS constructs in solution (250 nM or indicated concentrations) with Imp-β (250 nM); 2 hrs at 4 °C, 20 mM Tris pH 8, 200 mM NaCl, 1 mM EDTA, 1 mM DTT, 0.05% Triton X-100; western blot

Chain of MBP-KPNA7(E344Q) (human) (A9QM74 whole entry E344Q, the tested form may be a part): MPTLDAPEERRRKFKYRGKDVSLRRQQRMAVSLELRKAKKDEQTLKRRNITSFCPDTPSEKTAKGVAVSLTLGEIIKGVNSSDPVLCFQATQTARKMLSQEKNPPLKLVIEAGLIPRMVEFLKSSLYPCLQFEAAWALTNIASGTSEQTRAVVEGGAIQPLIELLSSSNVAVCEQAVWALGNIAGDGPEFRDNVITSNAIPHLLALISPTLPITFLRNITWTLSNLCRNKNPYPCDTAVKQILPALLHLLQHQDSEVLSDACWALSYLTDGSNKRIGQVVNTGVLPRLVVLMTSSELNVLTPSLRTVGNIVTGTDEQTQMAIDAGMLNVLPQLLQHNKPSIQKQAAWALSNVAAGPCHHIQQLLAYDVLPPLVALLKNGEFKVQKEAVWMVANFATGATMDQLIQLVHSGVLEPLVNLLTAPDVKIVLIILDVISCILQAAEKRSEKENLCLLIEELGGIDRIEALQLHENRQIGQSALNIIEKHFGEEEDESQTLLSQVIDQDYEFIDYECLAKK
Chain of GST-GFP-hnRNP U monopartite NLS (domain or fragment) (Q00839 2-825): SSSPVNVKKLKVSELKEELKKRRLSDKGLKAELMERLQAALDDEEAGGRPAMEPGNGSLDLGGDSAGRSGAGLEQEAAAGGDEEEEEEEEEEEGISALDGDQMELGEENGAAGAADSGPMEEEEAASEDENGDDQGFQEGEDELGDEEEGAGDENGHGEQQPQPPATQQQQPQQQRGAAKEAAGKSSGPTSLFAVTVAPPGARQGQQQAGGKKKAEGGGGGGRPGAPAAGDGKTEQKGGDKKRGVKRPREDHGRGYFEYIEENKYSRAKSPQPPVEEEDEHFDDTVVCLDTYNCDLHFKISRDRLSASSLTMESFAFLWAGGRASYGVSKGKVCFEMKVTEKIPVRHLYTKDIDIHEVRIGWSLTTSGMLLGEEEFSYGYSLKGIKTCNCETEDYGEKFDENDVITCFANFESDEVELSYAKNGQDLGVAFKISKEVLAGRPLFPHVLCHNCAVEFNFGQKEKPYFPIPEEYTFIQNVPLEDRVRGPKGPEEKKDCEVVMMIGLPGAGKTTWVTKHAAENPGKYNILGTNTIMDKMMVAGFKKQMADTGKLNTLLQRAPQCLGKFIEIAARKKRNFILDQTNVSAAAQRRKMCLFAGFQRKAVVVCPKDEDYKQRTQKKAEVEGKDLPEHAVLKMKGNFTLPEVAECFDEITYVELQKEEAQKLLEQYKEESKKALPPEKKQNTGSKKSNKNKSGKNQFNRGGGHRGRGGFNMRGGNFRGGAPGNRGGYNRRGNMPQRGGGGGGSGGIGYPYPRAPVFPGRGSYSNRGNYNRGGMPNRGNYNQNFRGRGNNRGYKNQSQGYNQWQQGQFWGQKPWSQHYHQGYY

Row | nuclear import of GST-GFP-hnRNP U-mNLS in digitonin-permeabilized HeLa cells, reduction compared to WT KPNA7 (MBP-KPNA7(E344Q) (human) [2]) | fold less binding than WT or P339A KPNA7 (MBP-KPNA7(E344Q) (human) [3]) | Substance | nuclear import of GST-GFP-NLS in digitonin-permeabilized HeLa cells, reduction compared to wild-type KPNA7 (MBP-KPNA7(E344Q) (human) [1])
1 | – | – | GST-GFP-SV40-NLS (domain or fragment) | 20%
2 | 30% | 8 fold | GST-GFP-hnRNP U monopartite NLS (domain or fragment) | –
